Results as given in US20240043504A1 (published 2024).

T1: MERS-CoV (NCoV/Novel coronavirus) Spike Protein S1 Protein (aa 1-725, His Tag) (Sino 40069-V08B1) (MERS-CoV, UniProt K9N5Q8 18-725)
T1 sequence: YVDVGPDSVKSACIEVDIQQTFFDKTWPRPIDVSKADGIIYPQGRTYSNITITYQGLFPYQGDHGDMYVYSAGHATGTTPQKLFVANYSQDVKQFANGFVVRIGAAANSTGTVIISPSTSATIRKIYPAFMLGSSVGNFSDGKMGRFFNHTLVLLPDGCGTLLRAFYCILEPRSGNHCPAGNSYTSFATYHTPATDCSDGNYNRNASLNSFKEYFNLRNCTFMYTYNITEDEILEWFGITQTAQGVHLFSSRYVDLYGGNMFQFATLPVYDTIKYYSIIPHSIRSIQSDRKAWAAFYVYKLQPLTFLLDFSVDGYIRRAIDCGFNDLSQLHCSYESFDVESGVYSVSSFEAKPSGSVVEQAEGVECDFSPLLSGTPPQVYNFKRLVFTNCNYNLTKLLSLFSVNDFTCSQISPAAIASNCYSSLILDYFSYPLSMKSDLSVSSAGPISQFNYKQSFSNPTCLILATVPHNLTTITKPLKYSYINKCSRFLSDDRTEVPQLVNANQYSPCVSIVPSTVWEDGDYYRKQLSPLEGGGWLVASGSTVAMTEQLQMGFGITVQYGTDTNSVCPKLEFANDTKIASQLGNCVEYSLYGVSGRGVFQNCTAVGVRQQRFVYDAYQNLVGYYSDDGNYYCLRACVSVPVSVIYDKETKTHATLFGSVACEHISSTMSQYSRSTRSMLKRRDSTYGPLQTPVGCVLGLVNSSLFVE

T2: MERS-CoV Spike Protein S2 (aa 726-1296, His Tag) (Sino 40070-[change]) (MERS-CoV, UniProt K9N5Q8 726-1296)
T2 sequence: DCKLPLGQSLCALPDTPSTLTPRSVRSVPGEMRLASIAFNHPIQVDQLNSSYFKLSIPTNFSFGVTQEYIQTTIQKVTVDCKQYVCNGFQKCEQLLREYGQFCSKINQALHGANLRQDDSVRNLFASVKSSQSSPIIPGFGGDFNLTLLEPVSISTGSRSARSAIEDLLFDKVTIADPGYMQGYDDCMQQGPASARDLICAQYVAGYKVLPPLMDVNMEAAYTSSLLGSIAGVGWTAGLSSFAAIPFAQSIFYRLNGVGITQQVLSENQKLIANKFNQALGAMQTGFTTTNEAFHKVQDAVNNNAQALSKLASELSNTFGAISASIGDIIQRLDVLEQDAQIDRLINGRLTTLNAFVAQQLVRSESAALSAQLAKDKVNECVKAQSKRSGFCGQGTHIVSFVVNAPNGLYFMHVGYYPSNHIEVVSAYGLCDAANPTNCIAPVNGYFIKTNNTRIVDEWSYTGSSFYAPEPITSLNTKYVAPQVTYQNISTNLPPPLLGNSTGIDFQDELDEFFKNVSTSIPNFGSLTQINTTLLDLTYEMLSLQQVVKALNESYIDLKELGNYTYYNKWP

T3: MERS-CoV (NCoV/Novel coronavirus) Spike Protein fragment (RBD, aa 367-606, His Tag) (Sino 40071-V08B1) (MERS-CoV, UniProt K9N5Q8 367-606)
T3 sequence: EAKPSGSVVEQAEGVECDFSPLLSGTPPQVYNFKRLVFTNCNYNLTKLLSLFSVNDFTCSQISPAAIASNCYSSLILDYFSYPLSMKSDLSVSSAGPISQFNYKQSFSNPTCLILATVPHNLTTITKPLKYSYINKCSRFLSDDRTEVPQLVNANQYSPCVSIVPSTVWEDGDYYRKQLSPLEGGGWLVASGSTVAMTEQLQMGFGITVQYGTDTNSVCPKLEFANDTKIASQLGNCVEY

T4: MERS-CoV Spike Protein (ECD, aa 1-1297, His Tag) (Sino 40069-[change]) (MERS-CoV, UniProt K9N5Q8 18-1297)
T4 sequence: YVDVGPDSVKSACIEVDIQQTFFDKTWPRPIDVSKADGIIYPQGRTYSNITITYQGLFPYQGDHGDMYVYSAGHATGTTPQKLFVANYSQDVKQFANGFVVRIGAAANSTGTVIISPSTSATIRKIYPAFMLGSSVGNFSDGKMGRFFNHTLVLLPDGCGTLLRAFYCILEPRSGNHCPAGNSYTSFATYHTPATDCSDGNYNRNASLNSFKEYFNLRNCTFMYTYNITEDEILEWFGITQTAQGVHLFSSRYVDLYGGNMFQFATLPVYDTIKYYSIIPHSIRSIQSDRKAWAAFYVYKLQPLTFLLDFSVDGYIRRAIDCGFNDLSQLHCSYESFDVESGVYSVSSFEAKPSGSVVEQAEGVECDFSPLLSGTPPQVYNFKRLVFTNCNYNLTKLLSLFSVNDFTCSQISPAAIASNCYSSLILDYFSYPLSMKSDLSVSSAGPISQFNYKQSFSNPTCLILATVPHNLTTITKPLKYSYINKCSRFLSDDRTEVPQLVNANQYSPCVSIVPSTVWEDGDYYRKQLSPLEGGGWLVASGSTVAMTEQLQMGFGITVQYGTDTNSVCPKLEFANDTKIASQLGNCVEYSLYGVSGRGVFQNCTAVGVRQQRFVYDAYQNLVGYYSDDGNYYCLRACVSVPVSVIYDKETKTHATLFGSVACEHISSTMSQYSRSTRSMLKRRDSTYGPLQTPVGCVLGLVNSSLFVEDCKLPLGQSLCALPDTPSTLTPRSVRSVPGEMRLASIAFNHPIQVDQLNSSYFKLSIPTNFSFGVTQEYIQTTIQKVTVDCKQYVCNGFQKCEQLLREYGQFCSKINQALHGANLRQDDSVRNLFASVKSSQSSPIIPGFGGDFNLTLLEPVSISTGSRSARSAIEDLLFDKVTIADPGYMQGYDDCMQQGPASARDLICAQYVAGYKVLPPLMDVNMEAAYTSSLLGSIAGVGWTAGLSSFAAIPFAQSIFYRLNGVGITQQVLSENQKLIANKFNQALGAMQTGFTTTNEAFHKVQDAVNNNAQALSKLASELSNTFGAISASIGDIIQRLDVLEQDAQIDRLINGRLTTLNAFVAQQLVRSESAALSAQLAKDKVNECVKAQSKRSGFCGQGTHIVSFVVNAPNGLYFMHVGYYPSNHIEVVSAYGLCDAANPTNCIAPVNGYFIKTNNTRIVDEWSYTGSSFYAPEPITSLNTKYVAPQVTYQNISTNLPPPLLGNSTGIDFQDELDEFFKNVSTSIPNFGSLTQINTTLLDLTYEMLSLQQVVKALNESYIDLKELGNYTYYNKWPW


Experiments:
Assay in all cases: Luminex, supernatant
[1] = biological target: Human SARS Coronavirus Spike S1 Subunit Protein (His Tag) (Sino 40150-V08B1) (Human SARS Coronavirus, UniProt P59594 14-667)
[2] = biological target: T1, MERS-CoV (NCoV/Novel coronavirus) Spike …
[3] = biological target: SARS-CoV-2 Spike Protein (RBD)(R319-F541).mFc (SARS-CoV-2)
[4] = biological target: SARS-CoV-2 Spike Protein (RBD)(R319-F541).hFc (SARS-CoV-2)
[5] = biological target: T2, MERS-CoV Spike Protein S2 (aa 726-1296, …)
[6] = biological target: T3, MERS-CoV (NCoV/Novel coronavirus) Spike …
[7] = biological target: T4, MERS-CoV Spike Protein (ECD, aa 1-1297, …)

Row | Binder | MFI [1] [MFI] | MFI [2] [MFI] | MFI [3] [MFI] | MFI [4] [MFI] | MFI [5] [MFI] | MFI [6] [MFI] | MFI [7] [MFI]
1 | mAb10913 (antibody, V domains shown) VH: EVQLVESGGGLVQPGGSLRLSCAASGFTFRNYEMNWVRQAPGKGLEWVSYITSSGSTMYYADSVKGRFTISRDNAKNSLYLQMNSLRAEDTAVYYCARDGFYYYYAMDVWGQGTTVTVSS VL: QSVLTQPPSVSAAPGQKVTISCSGSSSNIGNNYVSWYQQLPGTAPKLLIYDNNKRPSGIPDRFSGSKSGTSATLGITGLQTGDEADYYCGTWDSSLSVGRVFGTGTKVTVLG | 21 | 26 | 33000 | 31900 | 26 | 34 | 20
2 | mAb10937 (antibody, V domains shown) VH: QITLKESGPTLVKPTQTLTLTCTFSGFSLSTNVVGVGWIRQPPGKALEWLALIYWNDDKRYSPSLKSRLTITKDTSKNQVVLTMTNMDPVDTATYYCAHGPTGDYFDYWGQGTLVTVSS VL: not shown | 21 | 22 | 34200 | 34600 | 26 | 27 | 19
3 | mAb10923 (antibody, V domains shown) VH: QVQLVQSGAEVKKPGASVKVSCKASGYTFINYYIHWVRQAPGQGLEWMGWINPNSGGTNYAQKFQGRVTMTRDTSISTAYMELSRLRSDDTAVYYCAIITIFGVVTWFDPWGQGTLVTVSS VL: not shown | 29 | 25 | 37400 | 37800 | 36 | 37 | 23
4 | mAb10938 (antibody, V domains shown) VH: EVQLVESGGGLVQPGGSLRLSCAVSGFTVSSNYMSWVRQAPGKGLEWVSLIYSGGSTFYADSVKGRFTISRHNSKNTLYLQMNSLRAEDTAVYYCAREGGYSYDYNYWGQGTLVTVSS VL: DIQMTQSPSSLSASVGDRVTITCQASQDIRNYLNWYQQKPGKAPKLLIYDASNLETGVPSRFSGIGSGTDFTFTISSLQPEDIATYYCQQYDNLPITFGQGTRLEIKR | 19 | 20 | 30500 | 29600 | 19 | 25 | 16
5 | mAb10920 (antibody, V domains shown) VH: QVQLVESGGGVVQPGRSLRLSCAASGFTFSYYGMHWVRQAPGKGLEWVAVIWYDGSNKFYADSVKGRFTISRDNSKNTLYLQMNSLRAEDTAVYYCAAARPGYYYGMDVWGQGTTVTVSS VL: DIQMTQSPSSLSASVGDRVTITCRASQGISNYLAWFQQKPGKAPNSLIYAASSLQRGVPSKFSGSGSGTDFTLTISSLQPEDFATYYCQQYNSYPRTFGQGTKVEIKR | 26 | 27 | 36400 | 36800 | 30 | 39 | 24
6 | mAb10930 (antibody, V domains shown) VH: EVQLVESGGGLVQPGRSLRLSCAASGFTFDDYAMYWVRQAPGKGLEWVSGISWNSGSIGYADSVKGRFTISRDNAKNSLYLQMNSLRAADTALYYCAKDKDWNSRGYYYYGMDVWGQGTTVTVSS VL: not shown | 19 | 22 | 28600 | 28900 | 20 | 27 | 16
7 | mAb10914 (antibody, V domains shown) VH: EVQLVESGGGLVQPGGSLRLSCAASGLIVSRNYMIWVRQAPGKGLEWVSVIYSGGSTFYADSVKGRFTISRHNSKNTLYLQMNSLRAEDTAVYYCARDLGTGGMDVWGQGTTVTVSS VL: DIQLTQSPSFLSASVGDRVTITCWASQGISSYLAWYQQKPGKAPKLLIYAASTLQSGVPSRFSGSGSGTEFTLTISSLQPEDFATYYCQQLNSYPLTFGGGTKVEIKR | 22 | 23 | 30700 | 30500 | 28 | 31 | 19
8 | mAb10936 (antibody, V domains shown) VH: QVQLVESGGGVVQPGRSLRLSCAASGFTFRNYGMHWVRQAPGKGLEWVSVIWYDGSNRYYADSVKGRFTISRDTSKNTLYLQMNSLRAEDTAVYYCARDPPITGTTGGDAFDIWGQGTMVTVSS VL: not shown | 20 | 20 | 33700 | 33900 | 21 | 29 | 19
9 | mAb10984 (antibody, V domains shown) VH: EVQLVESGGGLVQPGGSLRLSCAASGLTVNRNYMSWVRQAPGKGLEWVSLIYSGGSTYYADSVKGRFTISRDNSKNTLYLQMNSLRLEDTAVYYCARGELGIPYGMDVWGQGTTVTVSS VL: QSVLTQPPSVSAAPGQKVTISCSGSSSNIGNNYVSWYQQLPGTAPKLLIYDNNKRPSGIPDRFSGSKSGTSATLGITGLQTGDEADYYCGTWDSSLSAGVFGGGTKLTVLG | 22 | 20 | 28400 | 28400 | 25 | 29 | 21
